As usually defined, the Km is the concentration of substrate that gives half-maximal velocity.

The values that follow come from patent US6465228B1, “Levodione reductase” (Roche Vitamins, Inc., priority 1999, dated 2002).

Type in all cases: biochemical, Corynebacterium aquaticum AKU611
One series addresses T1, levodione reductase (Leifsonia aquatica, UniProt Q9LBG2).
T1 construct: The LR is isolated and purified from the cell-free extract of disrupted cells; made in house; host or cells: Corynebacterium aquaticum AKU611 (FERM BP-6448); This is the natural producer and there was no recombinant expression; The enzyme was purified by ammonium sulfate precipitation and DEAE-Sephacel, alkyl Superose and MONO Q chromatography
T1 sequence (Q9LBG2 1-267): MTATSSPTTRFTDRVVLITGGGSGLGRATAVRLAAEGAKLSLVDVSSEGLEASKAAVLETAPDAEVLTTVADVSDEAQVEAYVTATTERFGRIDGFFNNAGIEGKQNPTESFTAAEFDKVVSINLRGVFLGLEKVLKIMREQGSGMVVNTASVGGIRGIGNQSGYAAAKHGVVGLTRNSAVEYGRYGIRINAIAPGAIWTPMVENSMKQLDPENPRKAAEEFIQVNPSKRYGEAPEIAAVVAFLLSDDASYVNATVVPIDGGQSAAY
Kind of series: Substrate specificity, standard LR enzyme assay (NADH decrease at 340 nm). As to conditions: for Enzyme Activity: substrate 2 mM final concentration instead of levodione. The method, then: A basal reaction mixture having a total volume of 500 μl includes 100 μl of 1 M potassium phosphate buffer (pH 7.0), 20 μl of 8 mM NADH in 0.2 mM KOH, 10-40 μl of the enzyme solution (i.e., levodione reductase), and water up to a total of 500 μl . This reaction mixture was incubated for 1 minute at 37 ° C. Then, 2 μl of 0.5 M levodione solution were added to give a final concentration of 2 mM, and the whole mixture was incubated for 1 minute at 37 ° C. The levodione reductase enzyme activity was monitored with the decrease of the absorbance of NADH at 340 nm.
In the present invention, one unit of the levodione reductase enzyme activity is defined as the amount of the levodione reductase which catalyzes the oxidation of 1 μmole of NADH per minute.
The substrate specificity of the enzyme was determined using the same enzyme assay method as described under 1, except that various solutions containing different substrates (2 mM final concentration in the reaction mixture) were used instead of levodione.

Substrate in series [1]: C[C@@H]1CC(=O)CC(C)(C)C1=O
Description: (§1) The Km and Vmax values of the enzyme were measured using levodione and actinol as the substrates. The basic enzyme assay method is the same as described under 1, but the substrate and the enzyme concentrations were varied.
(§2) The Km and Vmax values were calculated on the basis of the known Michaelis-Menten equation. Km is the concentration of the substrate that gives 50% of the Vmax of the enzyme reaction.
The series can be described thus: Michaelis constant (Km) and maximum velocity (Vmax). As to conditions: other: compound as substrate; pH 7.0; 37.0 °C.

Substrate in series [2]: C[C@@H]1C[C@@H](O)CC(C)(C)C1=O
Description: as §1, §2
Described as above. As to conditions: other: compound as substrate; pH 7.0; 37.0 °C.

As to `O=C1CCCCC1` [Cyclohexanone], on levodione reductase, the “Enzyme Activity” value was “Not detected (ND)”.

Regarding `C[C@@H]1CC(=O)CC(C)(C)C1=O` [Levodione, (6R)-2,2,6-trimethylcyclohexane-1,4-dione], the “Enzyme Activity” value at levodione reductase was 5.66 unit/ml. For the same molecule, the “substrate specificity of the enzyme” value at levodione reductase (substrates 2 mM) is on record as “the only substrate for which the enzyme exhibited activity”.

B1: levodione reductase (Leifsonia aquatica) (protein)
chain: MTATSSPTTRFTDRVVLITGGGSGLGRATAVRLAAEGAKLSLVDVSSEGLEASKAAVLETAPDAEVLTTVADVSDEAQVEAYVTATTERFGRIDGFFNNAGIEGKQNPTESFTAAEFDKVVSINLRGVFLGLEKVLKIMREQGSGMVVNTASVGGIRGIGNQSGYAAAKHGVVGLTRNSAVEYGRYGIRINAIAPGAIWTPMVENSMKQLDPENPRKAAEEFIQVNPSKRYGEAPEIAAVVAFLLSDDASYVNATVVPIDGGQSAAY
notes: The LR is isolated and purified from the cell-free extract of disrupted cells; made in house; host or cells: Corynebacterium aquaticum AKU611 (FERM BP-6448); This is the natural producer and there was no recombinant expression; The enzyme was purified by ammonium sulfate precipitation and DEAE-Sephacel, alkyl Superose and MONO Q chromatography
With B1, in series [1], the Km was 8.5 mM and the Vmax came out at 101.26 unit/mg. In series [2], the Km is 1.36 mM and the Vmax was 15.91 unit/mg.
